Laboratory results from article PMC4351760.

Biological target: R276S/M395R GltPh mutant (Pyrococcus horikoshii) (UniProt O59010)
Test: crystal structure

R276S/M395R GltPh mutant (from UniProt O59010 1-417) (natural protein)
stoichiometry N: 3
